Laboratory results as given in IntAct's records for PubMed 31515488.

B1: Outer dense fiber protein 1 (Homo sapiens), Q14990 (parent)
chain: MAALSCLLDSVRRDIKKVDRELRQLRCIDEFSTRCLCDLYMHPYCCCDLHPYPYCLCYSKRSRSCGLCDLYPCCLCDYKLYCLRPSLRSLERKAIRAIEDEKRELAKLRRTTNRILASSCCSSNILGSVNVCGFEPDQVKVRVKDGKVCVSAERENRYDCLGSKKYSYMNICKEFSLPPCVDEKDVTYSYGLGSCVKIESPCYPCTSPCSPCSPCSPCNPCSPCNPCSPYDPCNPCYPCGSRFSCRKMIL
B2: Protein LDOC1 (Homo sapiens), O95751 (parent)
chain: MVDELVLLLHALLMRHRALSIENSQLMEQLRLLVCERASLLRQVRPPSCPVPFPETFNGESSRLPEFIVQTASYMLVNENRFCNDAMKVAFLISLLTGEAEEWVVPYIEMDSPILGDYRAFLDEMKQCFGWDDDEDDDDEEEEDDY
partner: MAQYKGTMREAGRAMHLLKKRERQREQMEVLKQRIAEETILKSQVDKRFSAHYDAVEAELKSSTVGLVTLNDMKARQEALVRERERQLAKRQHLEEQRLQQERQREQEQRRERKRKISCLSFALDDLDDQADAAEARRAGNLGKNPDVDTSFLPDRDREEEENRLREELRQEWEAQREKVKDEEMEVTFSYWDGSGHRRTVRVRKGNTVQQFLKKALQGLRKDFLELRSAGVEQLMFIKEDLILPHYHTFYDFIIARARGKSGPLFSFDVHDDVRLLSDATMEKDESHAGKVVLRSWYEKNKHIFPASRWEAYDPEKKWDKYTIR
B3: Inactive peptidyl-prolyl cis-trans isomerase FKBP6 (Homo sapiens), O75344 (parent)
chain: MGGSALNQGVLEGDDAPGQSLYERLSQRMLDISGDRGVLKDVIREGAGDLVAPDASVLVKYSGYLEHMDRPFDSNYFRKTPRLMKLGEDITLWGMELGLLSMRRGELARFLFKPNYAYGTLGCPPLIPPNTTVLFEIELLDFLDCAESDKFCALSAEQQDQFPLQKVLKVAATEREFGNYLFRQNRFYDAKVRYKRALLLLRRRSAPPEEQHLVEAAKLPVLLNLSFTYLKLDRPTIALCYGEQALIIDQKNAKALFRCGQACLLLTEYQKARDFLVRAQKEQPFNHDINNELKKLASCYRDYVDKEKEMWHRMFAPCGDGSTAGES
partner: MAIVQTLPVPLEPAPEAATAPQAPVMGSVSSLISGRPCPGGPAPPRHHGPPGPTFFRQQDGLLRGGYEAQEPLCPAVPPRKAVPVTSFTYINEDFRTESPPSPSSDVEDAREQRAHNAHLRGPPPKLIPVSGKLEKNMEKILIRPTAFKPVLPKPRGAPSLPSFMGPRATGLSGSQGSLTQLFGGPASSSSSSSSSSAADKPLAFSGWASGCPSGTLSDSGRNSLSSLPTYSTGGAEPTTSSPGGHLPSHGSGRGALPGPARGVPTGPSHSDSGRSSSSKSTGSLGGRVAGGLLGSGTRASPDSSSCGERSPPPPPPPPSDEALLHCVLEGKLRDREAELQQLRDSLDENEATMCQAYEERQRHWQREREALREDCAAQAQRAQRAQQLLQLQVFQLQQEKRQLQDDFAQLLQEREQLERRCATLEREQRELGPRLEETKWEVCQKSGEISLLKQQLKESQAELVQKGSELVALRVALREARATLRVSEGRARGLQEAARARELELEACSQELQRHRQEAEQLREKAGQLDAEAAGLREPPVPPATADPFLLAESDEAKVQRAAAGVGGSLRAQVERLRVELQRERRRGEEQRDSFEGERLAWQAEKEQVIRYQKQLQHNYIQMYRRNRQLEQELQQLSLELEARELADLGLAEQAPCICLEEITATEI
B4: Four and a half LIM domains protein 2 (Homo sapiens), Q14192 (parent)
chain: MTERFDCHHCNESLFGKKYILREESPYCVVCFETLFANTCEECGKPIGCDCKDLSYKDRHWHEACFHCSQCRNSLVDKPFAAKEDQLLCTDCYSNEYSSKCQECKKTIMPGTRKMEYKGSSWHETCFICHRCQQPIGTKSFIPKDNQNFCVPCYEKQHAMQCVQCKKPITTGGVTYREQPWHKECFVCTACRKQLSGQRFTARDDFAYCLNCFCDLYAKKCAGCTNPISGLGGTKYISFEERQWHNDCFNCKKCSLSLVGRGFLTERDDILCPDCGKDI
partner: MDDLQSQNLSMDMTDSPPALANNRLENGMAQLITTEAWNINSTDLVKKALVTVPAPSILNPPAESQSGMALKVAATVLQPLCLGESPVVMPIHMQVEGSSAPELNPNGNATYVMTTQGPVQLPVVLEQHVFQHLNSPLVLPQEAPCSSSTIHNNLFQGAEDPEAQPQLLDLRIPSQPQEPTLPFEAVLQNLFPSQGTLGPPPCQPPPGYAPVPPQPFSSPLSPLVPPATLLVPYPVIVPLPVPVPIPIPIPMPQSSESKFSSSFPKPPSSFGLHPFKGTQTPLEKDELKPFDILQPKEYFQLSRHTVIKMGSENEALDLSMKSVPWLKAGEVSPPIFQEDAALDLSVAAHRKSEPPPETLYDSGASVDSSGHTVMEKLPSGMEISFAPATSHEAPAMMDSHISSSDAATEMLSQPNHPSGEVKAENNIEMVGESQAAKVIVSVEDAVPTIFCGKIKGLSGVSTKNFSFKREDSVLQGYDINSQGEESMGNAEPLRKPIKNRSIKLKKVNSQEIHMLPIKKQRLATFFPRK
B5: TNF receptor-associated factor 1 (Homo sapiens), Q13077 (parent)
chain: MASSSGSSPRPAPDENEFPFGCPPTVCQDPKEPRALCCAGCLSENPRNGEDQICPKCRGEDLQSISPGSRLRTQEKAHPEVAEAGIGCPFAGVGCSFKGSPQSVQEHEVTSQTSHLNLLLGFMKQWKARLGCGLESGPMALEQNLSDLQLQAAVEVAGDLEVDCYRAPCSESQEELALQHFMKEKLLAELEGKLRVFENIVAVLNKEVEASHLALATSIHQSQLDRERILSLEQRVVELQQTLAQKDQALGKLEQSLRLMEEASFDGTFLWKITNVTRRCHESACGRTVSLFSPAFYTAKYGYKLCLRLYLNGDGTGKRTHLSLFIVIMRGEYDALLPWPFRNKVTFMLLDQNNREHAIDAFRPDLSSASFQRPQSETNVASGCPLFFPLSKLQSPKHAYVKDDTMFLKCIVETST

Variants of: B1
Conditions: with mtus2_human MTUS2, Q5JR59
mtus2_human MTUS2, Q5JR59, sequence (Q5JR59 whole entry): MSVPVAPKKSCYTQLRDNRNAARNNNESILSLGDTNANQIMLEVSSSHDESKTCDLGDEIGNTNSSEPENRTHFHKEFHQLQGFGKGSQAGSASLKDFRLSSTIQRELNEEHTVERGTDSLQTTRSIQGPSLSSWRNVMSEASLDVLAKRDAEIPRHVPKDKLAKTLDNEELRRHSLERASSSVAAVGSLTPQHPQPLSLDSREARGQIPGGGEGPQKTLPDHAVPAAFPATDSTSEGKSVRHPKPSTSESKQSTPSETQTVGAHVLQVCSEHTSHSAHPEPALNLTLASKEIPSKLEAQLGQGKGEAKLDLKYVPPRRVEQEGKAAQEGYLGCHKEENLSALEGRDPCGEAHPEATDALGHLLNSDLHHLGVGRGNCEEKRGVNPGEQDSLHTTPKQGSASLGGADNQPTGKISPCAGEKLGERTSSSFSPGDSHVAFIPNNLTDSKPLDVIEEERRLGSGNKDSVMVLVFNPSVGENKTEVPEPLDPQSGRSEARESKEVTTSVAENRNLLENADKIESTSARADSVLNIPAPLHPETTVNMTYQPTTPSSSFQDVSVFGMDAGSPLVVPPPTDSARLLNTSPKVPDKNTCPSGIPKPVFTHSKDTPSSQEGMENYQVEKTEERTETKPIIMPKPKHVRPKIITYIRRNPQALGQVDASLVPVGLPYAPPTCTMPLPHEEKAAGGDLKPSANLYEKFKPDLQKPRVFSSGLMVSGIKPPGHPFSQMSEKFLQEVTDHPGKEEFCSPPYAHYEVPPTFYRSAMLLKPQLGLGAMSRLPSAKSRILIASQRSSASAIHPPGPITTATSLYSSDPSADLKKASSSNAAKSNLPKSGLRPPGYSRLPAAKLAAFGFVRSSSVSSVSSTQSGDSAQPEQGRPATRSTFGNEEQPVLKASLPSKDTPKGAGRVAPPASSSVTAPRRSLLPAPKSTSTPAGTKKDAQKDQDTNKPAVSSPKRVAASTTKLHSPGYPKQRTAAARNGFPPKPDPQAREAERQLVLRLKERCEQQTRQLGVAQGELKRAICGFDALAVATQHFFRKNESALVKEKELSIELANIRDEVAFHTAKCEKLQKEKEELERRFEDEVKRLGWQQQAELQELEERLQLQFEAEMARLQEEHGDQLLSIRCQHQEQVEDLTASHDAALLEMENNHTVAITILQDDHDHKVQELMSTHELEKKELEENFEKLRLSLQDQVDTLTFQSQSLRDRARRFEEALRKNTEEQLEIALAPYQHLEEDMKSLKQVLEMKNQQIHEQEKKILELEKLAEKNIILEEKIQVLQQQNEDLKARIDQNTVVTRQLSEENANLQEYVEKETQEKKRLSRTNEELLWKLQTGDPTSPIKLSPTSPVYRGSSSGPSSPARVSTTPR

effect of a mutation on the interaction | Variant
with no effect | MAALSCLLDSVRRDIKKVDRELRQLRCIDEFSTRCLCDLYMHPYCCCDLHPYPYCLCYSKRSRSCGLCDLYPCCLCDYKLYCLRPSLRILERKAIRAIEDEKRELAKLRRTTNRILASSCCSSNILGSVNVCGFEPDQVKVRVKDGKVCVSAERENRYDCLGSKKYSYMNICKEFSLPPCVDEKDVTYSYGLGSCVKIESPCYPCTSPCSPCSPCSPCNPCSPCNPCSPYDPCNPCYPCGSRFSCRKMIL [S89I]

Variants of: B2
Conditions: with fa50b_human FAM50B

effect of a mutation on the interaction | Variant
disrupting interaction strength | L12H

Variants of: B3
Conditions: with lzts2_human LZTS2, Q9BRK4

effect of a mutation on the interaction | Variant
with no effect | MGGSALNQGVLEGDDAPGQSLYERLSQRMLDISGDRGVLKDVIREGAGDLVAPDASVLVKYSGYLEHMDRPFDSNYFRKTPRLMKLGEDITLWGMELGLLSMRRGELARFLFKPNYAYGTLGCPPLIPPNTTVLFEIELLDFLDCAESDKFCALSAEQQDQFPLQKVLKVAATEREFGNYLFRQNRFYDAKVRYKRALLLLRRRSAPPEEQHLVEAAKLPVLLNLSFTYLKLDRPTIALCYGEQALIIDQKNAKALFRCGQACLLLTEYQKARDFLVRAQKEQPFNNDINNELKKLASCYRDYVDKEKEMWHRMFAPCGDGSTAGES [H287N]
with no effect | MGGSALNQGVLEGDDAPGQSLYERLSQRMLDISGDRGVLKDVIREGAGDLVAPDASVLVKYSGYLEHMDRPFDSNYFRKTPRLMKLGEDITLWGMELGLLSMRRGELARFLFKPNYAYGTLGCPPLIPPNTTVLFEIELLDFLDCAESDKFCALSAEQQDQFPLQKVLKVAATEQEFGNYLFRQNRFYDAKVRYKRALLLLRRRSAPPEEQHLVEAAKLPVLLNLSFTYLKLDRPTIALCYGEQALIIDQKNAKALFRCGQACLLLTEYQKARDFLVRAQKEQPFNHDINNELKKLASCYRDYVDKEKEMWHRMFAPCGDGSTAGES [R175Q]

Variants of: B4
Conditions: with rai2_human RAI2, Q9Y5P3

effect of a mutation on the interaction | Variant
with no effect | MTERFDCHHCNESLFGKKYILREESPYCVVCFETLFSNTCEECGKPIGCDCKDLSYKDRHWHEACFHCSQCRNSLVDKPFAAKEDQLLCTDCYSNEYSSKCQECKKTIMPGTRKMEYKGSSWHETCFICHRCQQPIGTKSFIPKDNQNFCVPCYEKQHAMQCVQCKKPITTGGVTYREQPWHKECFVCTACRKQLSGQRFTARDDFAYCLNCFCDLYAKKCAGCTNPISGLGGTKYISFEERQWHNDCFNCKKCSLSLVGRGFLTERDDILCPDCGKDI [A37S]
with no effect | MTERFDCHHCNESLFGKKYILREESPYCVVCFETLFANTCEECGKPIGCDCKDLSYKDRHWHEACFHCSQCRNSLVDKPFAAKEDQLLCTDCYSKEYSSKCQECKKTIMPGTRKMEYKGSSWHETCFICHRCQQPIGTKSFIPKDNQNFCVPCYEKQHAMQCVQCKKPITTGGVTYREQPWHKECFVCTACRKQLSGQRFTARDDFAYCLNCFCDLYAKKCAGCTNPISGLGGTKYISFEERQWHNDCFNCKKCSLSLVGRGFLTERDDILCPDCGKDI [N95K]

Variants of: B5
Conditions: with traf2_human TRAF2, Q12933
traf2_human TRAF2, Q12933, sequence (Q12933 whole entry): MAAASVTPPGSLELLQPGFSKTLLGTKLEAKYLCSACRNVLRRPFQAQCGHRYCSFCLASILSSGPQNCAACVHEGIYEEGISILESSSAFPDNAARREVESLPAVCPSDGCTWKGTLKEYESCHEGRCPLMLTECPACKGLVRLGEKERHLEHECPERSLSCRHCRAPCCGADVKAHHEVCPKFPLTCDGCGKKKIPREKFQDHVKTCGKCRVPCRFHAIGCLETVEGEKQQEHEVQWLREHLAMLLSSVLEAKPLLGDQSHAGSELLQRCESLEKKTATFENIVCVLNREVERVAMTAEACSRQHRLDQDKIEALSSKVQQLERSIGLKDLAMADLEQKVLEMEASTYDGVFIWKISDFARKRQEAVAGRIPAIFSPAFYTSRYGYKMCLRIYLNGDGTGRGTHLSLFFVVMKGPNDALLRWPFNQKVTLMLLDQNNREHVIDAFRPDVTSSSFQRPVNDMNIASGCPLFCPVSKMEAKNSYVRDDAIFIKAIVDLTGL

effect of a mutation on the interaction | Variant
with no effect | MASSSGSSPRPAPDENEFPFGCPPTVCQDPKEPRALCCAGCLSENPRNGEDQICPKCRGEDLQSISPGSRLRTQEKAHPEVAEAGIGCPFAGVGCSFKGSPQSVQEHEVTSQTSHLNLLLGFMKQWKARLGCGLESGPMALEQNLSDLQLQAAVEVAGDLEVDCYRAPCSESQEELALQHFMKEKLLAELEGRLRVFENIVAVLNKEVEASHLALATSIHQSQLDRERILSLEQRVVELQQTLAQKDQALGKLEQSLRLMEEASFDGTFLWKITNVTRRCHESACGRTVSLFSPAFYTAKYGYKLCLRLYLNGDGTGKRTHLSLFIVIMRGEYDALLPWPFRNKVTFMLLDQNNREHAIDAFRPDLSSASFQRPQSETNVASGCPLFFPLSKLQSPKHAYVKDDTMFLKCIVETST [K193R]
with no effect | MASSSGSSPRPAPDENEFPFGCPPTVCQDPKEPRALCCAGCLSENPRNGEDQICPKCRGEDLQSISPGSRLRTQEKAHPEVAEAGIGCPFAGVGCSFKGSPQSVQEHEVTSQTSHLNLLLGFMKQWKARLGCGLESGPMALEQNLSDLQLQAAVEVAGDLEVDCYRAPCSESQEELALQHFMKEKLLAELEGKLRVFENIVAVLNKEMEASHLALATSIHQSQLDRERILSLEQRVVELQQTLAQKDQALGKLEQSLRLMEEASFDGTFLWKITNVTRRCHESACGRTVSLFSPAFYTAKYGYKLCLRLYLNGDGTGKRTHLSLFIVIMRGEYDALLPWPFRNKVTFMLLDQNNREHAIDAFRPDLSSASFQRPQSETNVASGCPLFFPLSKLQSPKHAYVKDDTMFLKCIVETST [V208M]
with no effect | MASSSGSSPRPAPDENEFPFGCPPTVCQDPKEPRALCCAGCLSENPRNGEDQICPKCRGEDLQSISPGSRLRTQEKAHPEVAEAGIGCPFAGVGCSFKGSPQSVQEHEVTSQTSHLNLLLGFMKQWKARLGCGLESGPMALEQNLSDLQLQAAVEVAGDLEVDCYRAPCSESQEELALQHFMKEKLLAELEGKLRVFENIVAVLNKEVEASHLALATSIHQSQLDCERILSLEQRVVELQQTLAQKDQALGKLEQSLRLMEEASFDGTFLWKITNVTRRCHESACGRTVSLFSPAFYTAKYGYKLCLRLYLNGDGTGKRTHLSLFIVIMRGEYDALLPWPFRNKVTFMLLDQNNREHAIDAFRPDLSSASFQRPQSETNVASGCPLFFPLSKLQSPKHAYVKDDTMFLKCIVETST [R226C]
with no effect | MASSSGSSPRPAPDENEFPFGCPPTVCQDPKEPRALCCAGCLSENPRNGEDQICPKCRGEDLQSISPGSRLRTQEKAHPEVAEAGIGCPFAGVGCSFKGSPQSVQEHEVTSQTSHLNLLLGFMKQWKARLGCGLESGPMALEQNLSDLQLQAAVEVAGDLEVDCYRAPCSESQEELALQHFMKEKLLAELEGKLRVFENIVAVLNKEVEASHLALATSIHQSQLDHERILSLEQRVVELQQTLAQKDQALGKLEQSLRLMEEASFDGTFLWKITNVTRRCHESACGRTVSLFSPAFYTAKYGYKLCLRLYLNGDGTGKRTHLSLFIVIMRGEYDALLPWPFRNKVTFMLLDQNNREHAIDAFRPDLSSASFQRPQSETNVASGCPLFFPLSKLQSPKHAYVKDDTMFLKCIVETST [R226H]
with no effect | MASSSGSSPRPAPDENEFPFGCPPTVCQDPKEPRALCCAGCLSENPRNGEDQICPKCRGEDLQSISPGSRLRTQEKAHPEVAEAGIGCPFAGVGCSFKGSPQSVQEHEVTSQTSHLNLLLGFMKQWKARLGCGLESGPMALEQNLSDLQLQAAVEVAGDLEVDCYRAPCSESQEELALQHFMKEKLLAELEGKLRVFENIVAVLNKEVEASHLALATSIHQSQLDRECILSLEQRVVELQQTLAQKDQALGKLEQSLRLMEEASFDGTFLWKITNVTRRCHESACGRTVSLFSPAFYTAKYGYKLCLRLYLNGDGTGKRTHLSLFIVIMRGEYDALLPWPFRNKVTFMLLDQNNREHAIDAFRPDLSSASFQRPQSETNVASGCPLFFPLSKLQSPKHAYVKDDTMFLKCIVETST [R228C]
with no effect | MASSSGSSPRPAPDENEFPFGCPPTVCQDPKEPRALCCAGCLSENPRNGEDQICPKCRGEDLQSISPGSRLRTQEKAHPEVAEAGIGCPFAGVGCSFKGSPQSVQEHEVTSQTSHLNLLLGFMKQWKARLGCGLESGPMALEQNLSDLQLQAAVEVAGDLEVDCYRAPCSESQEELALQHFMKEKLLAELEGKLRVFENIVAVLNKEVEASHLALATSIHQSQLDREHILSLEQRVVELQQTLAQKDQALGKLEQSLRLMEEASFDGTFLWKITNVTRRCHESACGRTVSLFSPAFYTAKYGYKLCLRLYLNGDGTGKRTHLSLFIVIMRGEYDALLPWPFRNKVTFMLLDQNNREHAIDAFRPDLSSASFQRPQSETNVASGCPLFFPLSKLQSPKHAYVKDDTMFLKCIVETST [R228H]
